± gives the standard deviation.
Experiment: protein stability index of a GFP-peptide fusion (GPS, HEK-293T) (PSI 1-6); higher = more stable
[1] = treatment: DMSO, c terminus: a fixed tail appended
[2] = treatment: MLN4924 1 uM, 8 h, c terminus: a fixed tail appended
[3] = treatment: DMSO, c terminus: native
[4] = treatment: MLN4924 1 uM, 8 h, c terminus: native
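Further: 24-mer peptide tiles fused after GFP, lentivirally expressed, FACS-sorted into six equal bins by GFP/DsRed ratio, decoded by Illumina sequencing, PSI is the read-weighted mean bin number.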

| Sequence | protein stability index [1] | protein stability index [2] | protein stability index [3] | protein stability index [4] |
| --- | --- | --- | --- | --- |
| KLAKVYSYAHGWMFQGWNCGDYFP [CPN1] | 2.52 ± 0.43 | 2.52 ± 0.38 | – | – |
| KDTDLARVRRFQVVEVTKGILEHV [M1AP] | 2.55 ± 0.47 | 2.86 ± 0.56 | – | – |
| IFYDLVRQINRKTPVPGKARKKSS [RAP1B] | 2.47 ± 0.47 | 2.37 ± 0.4 | – | – |
| AGHCSASPGPAAPTARMPGRLRG | – | – | 3 ± 0.6 | 2.93 ± 0.73 |
| GGGSYGKLFESVECYDPRTQQWTA [GAN] | 3 ± 0.13 | 3.13 ± 0.29 | – | – |
| EAPKYHIPYWVAYYLALLLSLLVM [NSDHL] | 2.63 ± 0.36 | 2.53 ± 0.69 | – | – |
| MGQVLPVFAHCKEAPSTASSTPDS [RTN2] | 4.67 ± 0.25 | 4.83 ± 0.23 | – | – |
| GQTVTIWAANAGVTASPPTDLIWK [LMNB1] | 2.37 ± 0.35 | 2.34 ± 0.32 | – | – |
| GVMLTWPDGLMYQKFRNQFLSFSM [TMEM120A] | 2.89 ± 0.98 | 2.69 ± 0.43 | – | – |
| TNLKETYRCIREARYTMPSSLLAP [PLK2] | 2.34 ± 0.54 | 2.3 ± 0.08 | – | – |
| ANSAFAVDLFKQLCEKEPLGNVLF [SERPINB5] | 2.08 ± 0.29 | 2.47 ± 0.3 | – | – |
| IAPVLKLASHHNHFSQIVIFMLCT [OR10K2] | 3.25 ± 0.75 | 3.2 ± 0.83 | – | – |
| MAVLEEIQQELIKQEQSIISEYEK [RPAIN] | 4.28 ± 0.16 | 4.47 ± 0.16 | – | – |
| VIYCLGGYDGLNILNSVEKYDPHT [KLHL12] | 2.39 ± 0.54 | 2.18 ± 0.39 | – | – |
| YNKPTDDIVLMAQALEKIFLQKVA [BRD3] | 2.45 ± 0.54 | 2.06 ± 0.44 | – | – |
| AKELTAEKRLEGQEEEEDNRDSSM [CHGA] | 5.67 ± 0.22 | 5.61 ± 0.31 | – | – |
| RRHRLGGVGAVPGPGTPTGPSLPS [ZBTB22] | 4.25 ± 0.22 | 4.47 ± 0.16 | – | – |
| MQRLVAWDPACLPLPPPPPAFKSM [CEBPB] | 2.63 ± 0.39 | 2.91 ± 0.39 | – | – |
| TLALLLNFLACLASFCVETNNGAG [SCAMP3] | 3.06 ± 0.2 | 2.88 ± 0.89 | – | – |
| LEAGADQEHKTDEMHTALMEACMD [ANKRD17] | 5.52 ± 0.37 | 5.34 ± 0.28 | – | – |
| ARLAADDFRVKYETELAMRQSVEN [KRT18] | 4.39 ± 0.19 | 4.44 ± 0.21 | – | – |
| NQRMKSKRWQKNNWPKNSNGVTQK [NANOGP8] | 3.89 ± 0.44 | 4.2 ± 0.42 | – | – |
| FYKREMFDPAEKYKMDHRRRGIAL [CASP6] | 2.84 ± 0.2 | 2.78 ± 0.26 | – | – |

| Sequence | protein stability index [1] | protein stability index [2] | protein stability index [3] | protein stability index [4] |
| --- | --- | --- | --- | --- |
| LTISPKAARVGLLQYSTQVHTEFT [MATN2] | – | 2.436 ± 0.019 | – | – |
| QVLNETRSQYEALVETNRREVEQW [KRT34] | 4.3 ± 0.22 | 4.6 ± 0.1 | – | – |
| VTSIHKYMVRRYFNKPSRVPAPEA [MYORG] | 2.42 ± 0.14 | 2.38 ± 0.3 | – | – |
| EFSRATAEKVNQDMCMKVPDDPEH [CRYL1] | 5.62 ± 0.17 | 5.12 ± 0.75 | – | – |
| SQILQNKKHKNSQLDKNSEVYQEV [FAM98B] | 4.46 ± 0.42 | 4.81 ± 0.067 | – | – |
| RKQKQELCEKFDYLYGILEERKNE [TRIM55] | 3.72 ± 0.36 | 3.67 ± 0.54 | – | – |
| IGVGLGFELQRLEFDLSPLNLDIG [AASDHPPT] | 2.3 ± 0.55 | 2.29 ± 0.24 | – | – |
| KKHGTQNKRAALQALKRKKRFEKQ [CHMP4C] | 4.52 ± 0.3 | 4.52 ± 0.19 | – | – |
| NDIMAYMFGFFFGRTPLIKLSPKK [CDS2] | 2.03 ± 0.31 | 2.08 ± 0.22 | – | – |
| SSCHFARDSSFLISGGFDRTVAIW [WDR88] | 2.42 ± 0.45 | 2.51 ± 0.55 | – | – |
| VLEQFLTILPQEIQSRVQELHPES [ZNF263] | 2.56 ± 0.31 | 2.53 ± 0.39 | – | – |
| VEEILDRENKRMADSLASKVTRLK [BET1L] | 4.31 ± 0.4 | 4.52 ± 0.23 | – | – |
| EPASAREAPASVVPFVRVKREREV [USP39] | 4.93 ± 0.3 | 4.87 ± 0.58 | – | – |
| EFRRWRDTGVAFELRDSSAYHVPN [DNAAF3] | 2.75 ± 0.24 | 3 ± 0.32 | – | – |
| SVWQHIDCMGIDRQHIPDTYLCER [KMT2E] | 2.83 ± 0.2 | 2.81 ± 0.4 | – | – |
| DILPIHPPSGNSDLDPDAQNPML [BTBD10] | – | – | 5.46 ± 0.17 | 5.21 ± 0.22 |
| QEAMFNMATLNRTAAGLMHTFNAH [SEPHS2] | 2.44 ± 0.12 | 2.54 ± 0.18 | – | – |
| AGSFSRRLIKRFSFKSKPKANGNP [C2CD2L] | 3.19 ± 0.21 | 3.55 ± 0.15 | – | – |
| LTALLEKYTPSNKHGFSWAVPKFM [DLC1] | 2.6 ± 0.57 | 2.09 ± 0.2 | – | – |
| EEDSILIIPTPDEEEKILRVKLEE [ZNF24] | 5.03 ± 0.14 | 5 ± 0.31 | – | – |
| LVDVRQEQLQGFNTRVRELAQAAG [DNAAF3] | 3.67 ± 0.55 | 3.67 ± 0.29 | – | – |
| HSGQVTILKLEQENCTLVTTFRGH [WDFY2] | 2.35 ± 0.26 | 2.29 ± 0.28 | – | – |

Reference: the supplement of paper PMC10567573
